Measurements published in patent US20190017043A1.

Biological target: MBP-Z-N6K (Z-domain protein with Asn6 mutated to Lys, fused with maltose binding protein) [MBP: P0AEX9]
Test: covalent protein-protein cross-linking after sodium periodate treatment, 4 hours, SDS-PAGE

“AFB-D36DOPA (ZSPA affibody with L-DOPA genetically incorporated at position 36) (designed binder)” was tested, and the cross-linked products was 70 to 75%.
